Patent US20260317399 (published 2026)
Where two headings read alike, the source gives them in different places.

T1: FcgRIIaH (human, UniProt P12318)
T1 chain: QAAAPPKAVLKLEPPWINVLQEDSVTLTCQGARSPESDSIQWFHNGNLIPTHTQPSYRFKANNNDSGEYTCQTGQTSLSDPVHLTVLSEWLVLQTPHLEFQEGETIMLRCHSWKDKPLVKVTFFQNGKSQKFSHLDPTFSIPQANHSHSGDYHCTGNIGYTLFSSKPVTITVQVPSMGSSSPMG


Experiments:
Experiment in all cases: SPR
[1] = molecular target: T2, FcgRIIIaV (human, UniProt P08637)
[2] = molecular target: T1, FcgRIIaH
[3] = molecular target: T2, FcgRIIIaV; remark: listed apart in the source

T2 sequence (P08637 17-208 F176V): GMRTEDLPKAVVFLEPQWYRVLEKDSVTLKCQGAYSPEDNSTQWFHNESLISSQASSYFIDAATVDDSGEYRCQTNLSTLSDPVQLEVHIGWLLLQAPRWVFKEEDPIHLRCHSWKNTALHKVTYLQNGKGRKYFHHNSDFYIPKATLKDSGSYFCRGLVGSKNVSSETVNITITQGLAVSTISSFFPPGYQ

Row | Kd [1] [µM] | Kd [2] [µM] | Kd [3] [µM] | Binder
1 | 14 |  |  | IL6R-AP002/IL6R-BP257/IL6R-L (antibody) chain 1: QVQLQESGPGLVKPSETLSLTCAVSGHSISHDHAWSWVRQPPGEGLEWIGFISYSGITNYNPSLQGRVTISRDNSKNTLYLQMNSLRAEDTAVYYCARSLARTTAMDYWGEGTLVTVSSASTKGPSVFPLAPSSKSTSGGTAALGCLVKDYFPEPVTVSWNSGALTSGVHTFPAVLQSSGLYSLSSVVTVPSSSLGTQTYICNVNHKPSNTKVDKKVEPKSCDKTHTCPPCPAPDLLGDDSVFLFPPKPKDTLMISRTPEVTCVVVDVSDEDGEVKFNWYVDGVEVHNAKTKPREEQYNSTYRVVSVLTVLHQDWLNGKEYKCKVSNKALPRPIEKTISKAKGQPREPQVYTLPPSRKELTKNQVSLTCLVKGFYPSDIAVEWESNGQPENNYKTTPPVLDSDGSFFLYSKLTVDKSRWQQGNVFSCSVMHEALHNRYTQKSLSLSP chain 2: QVQLQESGPGLVKPSETLSLTCAVSGHSISHDHAWSWVRQPPGEGLEWIGFISYSGITNYNPSLQGRVTISRDNSKNTLYLQMNSLRAEDTAVYYCARSLARTTAMDYWGEGTLVTVSSASTKGPEVFPLAPSSKSTSGGTAALGCLVKDYFPEPVTVSWNSGALTSGVHTFPAVLQSSGLYSLSSVVTVPSSSLGTQTYICNVNHKPSNTKVDKKVEPKSCDKTHTCPPCPAPDLLGDDSVFLFPPKPKDTLMISRTPEVTCVVVDVSDEDGEVKFNWYVDGVEVHNAKTKPREEQYNSTYRVVSVLTVLHQDWLNGKEYKCKVSNKALPRPIEKTISKAKGQPREPQVYTLPPSRDELTKNQVSLTCLVKGFYPSDIAVEWESNGQPENNYKTTPPVLDSDGSFFLYSKLTVDKSRWQQGNVFSCSVMHEALHNHYTQESLSLSP chain 3: not shown
2 |  | 5.1 | 21 | IL6R-AP029/IL6R-BP410/IL6R-L (antibody) chain 1: QVQLQESGPGLVKPSETLSLTCAVSGHSISHDHAWSWVRQPPGEGLEWIGFISYSGITNYNPSLQGRVTISRDNSKNTLYLQMNSLRAEDTAVYYCARSLARTTAMDYWGEGTLVTVSSASTKGPSVFPLAPSSKSTSGGTAALGCLVKDYFPEPVTVSWNSGALTSGVHTFPAVLQSSGLYSLSSVVTVPSSSLGTQTYICNVNHKPSNTKVDKKVEPKSCDKTHTCPPCPAPDLLGDDSVFLFPPKPKDTLMISRTPEVTCVVVDVSEEDGEVKFNWYVDGVEVHNAKTKPREEQDNSTYRVVSVLTVLHQDWLNGKEYKCKVSNKALPRPIEKTISKAKGQPREPQVYTLPPSRKELTKNQVSLTCLVKGFYPSDIAVEWESNGQPENNYKTTPPVLDSDGSFFLYSKLTVDKSRWQQGNVFSCSVMHEALHNRYTQKSLSLSP chain 2: QVQLQESGPGLVKPSETLSLTCAVSGHSISHDHAWSWVRQPPGEGLEWIGFISYSGITNYNPSLQGRVTISRDNSKNTLYLQMNSLRAEDTAVYYCARSLARTTAMDYWGEGTLVTVSSASTKGPSVFPLAPSSKSTSGGTAALGCLVKDYFPEPVTVSWNSGALTSGVHTFPAVLQSSGLYSLSSVVTVPSSSLGTQTYICNVNHKPSNTKVDKKVEPKSCDKTHTCPPCPAPDLTGDDSVFLFPPKPKDTLMISRTPEVTCVVVDVSEEDGEVKFNWYVDGVEVHNAKTKPREEQDNSTYRVVSVLTVLHQDWLNGKEYKCKVSNKALPRPIEKTISKAKGQPREPQVYTLPPSRDELTKNQVSLTCLVKGFYPSDIAVEWESNGQPENNYKTTPPVLDSDGSFFLYSKLTVDKSRWQQGNVFSCSVMHEALHNHYTQESLSLSP chain 3: not shown
3 | 17 |  |  | IL6R-AP002/IL6R-BP256/IL6R-L (antibody) chain 1: QVQLQESGPGLVKPSETLSLTCAVSGHSISHDHAWSWVRQPPGEGLEWIGFISYSGITNYNPSLQGRVTISRDNSKNTLYLQMNSLRAEDTAVYYCARSLARTTAMDYWGEGTLVTVSSASTKGPSVFPLAPSSKSTSGGTAALGCLVKDYFPEPVTVSWNSGALTSGVHTFPAVLQSSGLYSLSSVVTVPSSSLGTQTYICNVNHKPSNTKVDKKVEPKSCDKTHTCPPCPAPDLLGDDSVFLFPPKPKDTLMISRTPEVTCVVVDVSDEDGEVKFNWYVDGVEVHNAKTKPREEQYNSTYRVVSVLTVLHQDWLNGKEYKCKVSNKALPRPIEKTISKAKGQPREPQVYTLPPSRKELTKNQVSLTCLVKGFYPSDIAVEWESNGQPENNYKTTPPVLDSDGSFFLYSKLTVDKSRWQQGNVFSCSVMHEALHNRYTQKSLSLSP chain 2: QVQLQESGPGLVKPSETLSLTCAVSGHSISHDHAWSWVRQPPGEGLEWIGFISYSGITNYNPSLQGRVTISRDNSKNTLYLQMNSLRAEDTAVYYCARSLARTTAMDYWGEGTLVTVSSASTKGPDVFPLAPSSKSTSGGTAALGCLVKDYFPEPVTVSWNSGALTSGVHTFPAVLQSSGLYSLSSVVTVPSSSLGTQTYICNVNHKPSNTKVDKKVEPKSCDKTHTCPPCPAPDLLGDDSVFLFPPKPKDTLMISRTPEVTCVVVDVSDEDGEVKFNWYVDGVEVHNAKTKPREEQYNSTYRVVSVLTVLHQDWLNGKEYKCKVSNKALPRPIEKTISKAKGQPREPQVYTLPPSRDELTKNQVSLTCLVKGFYPSDIAVEWESNGQPENNYKTTPPVLDSDGSFFLYSKLTVDKSRWQQGNVFSCSVMHEALHNHYTQESLSLSP chain 3: not shown
4 | 16 |  |  | IL6R-AP009/IL6R-BP260/IL6R-L (antibody) chain 1: QVQLQESGPGLVKPSETLSLTCAVSGHSISHDHAWSWVRQPPGEGLEWIGFISYSGITNYNPSLQGRVTISRDNSKNTLYLQMNSLRAEDTAVYYCARSLARTTAMDYWGEGTLVTVSSASTKGPSVFPLAPSSKSTSGGTAALGCLVKDYFPEPVTVSWNSGALTSGVHTFPAVLQSSGLYSLSSVVTVPSSSLGTQTYICNVNHKPSNTKVDKKVEPKSCDKTHTCPPCPAPDLLGDDSVFLFPPKPKDTLMISRTPEVTCVVVDVSDEDGEVKFNWYVDGVEVHNAKTKPREEQDNSTYRVVSVLTVLHQDWLNGKEYKCKVSNKALPRPIEKTISKAKGQPREPQVYTLPPSRKELTKNQVSLTCLVKGFYPSDIAVEWESNGQPENNYKTTPPVLDSDGSFFLYSKLTVDKSRWQQGNVFSCSVMHEALHNRYTQKSLSLSP chain 2: QVQLQESGPGLVKPSETLSLTCAVSGHSISHDHAWSWVRQPPGEGLEWIGFISYSGITNYNPSLQGRVTISRDNSKNTLYLQMNSLRAEDTAVYYCARSLARTTAMDYWGEGTLVTVSSASTKGPEVFPLAPSSKSTSGGTAALGCLVKDYFPEPVTVSWNSGALTSGVHTFPAVLQSSGLYSLSSVVTVPSSSLGTQTYICNVNHKPSNTKVDKKVEPKSCDKTHTCPPCPAPDLLGDDSVFLFPPKPKDTLMISRTPEVTCVVVDVSDEDGEVKFNWYVDGVEVHNAKTKPREEQDNSTYRVVSVLTVLHQDWLNGKEYKCKVSNKALPRPIEKTISKAKGQPREPQVYTLPPSRDELTKNQVSLTCLVKGFYPSDIAVEWESNGQPENNYKTTPPVLDSDGSFFLYSKLTVDKSRWQQGNVFSCSVMHEALHNHYTQESLSLSP chain 3: not shown
5 |  | 8.9 | 23 | IL6R-AP029/IL6R-BP407/IL6R-L (antibody) chain 1: QVQLQESGPGLVKPSETLSLTCAVSGHSISHDHAWSWVRQPPGEGLEWIGFISYSGITNYNPSLQGRVTISRDNSKNTLYLQMNSLRAEDTAVYYCARSLARTTAMDYWGEGTLVTVSSASTKGPSVFPLAPSSKSTSGGTAALGCLVKDYFPEPVTVSWNSGALTSGVHTFPAVLQSSGLYSLSSVVTVPSSSLGTQTYICNVNHKPSNTKVDKKVEPKSCDKTHTCPPCPAPDLLGDDSVFLFPPKPKDTLMISRTPEVTCVVVDVSEEDGEVKFNWYVDGVEVHNAKTKPREEQDNSTYRVVSVLTVLHQDWLNGKEYKCKVSNKALPRPIEKTISKAKGQPREPQVYTLPPSRKELTKNQVSLTCLVKGFYPSDIAVEWESNGQPENNYKTTPPVLDSDGSFFLYSKLTVDKSRWQQGNVFSCSVMHEALHNRYTQKSLSLSP chain 2: QVQLQESGPGLVKPSETLSLTCAVSGHSISHDHAWSWVRQPPGEGLEWIGFISYSGITNYNPSLQGRVTISRDNSKNTLYLQMNSLRAEDTAVYYCARSLARTTAMDYWGEGTLVTVSSASTKGPSVFPLAPSSKSTSGGTAALGCLVKDYFPEPVTVSWNSGALTSGVHTFPAVLQSSGLYSLSSVVTVPSSSLGTQTYICNVNHKPSNTKVDKKVEPKSCDKTHTCPPCPAPDLDGDDSVFLFPPKPKDTLMISRTPEVTCVVVDVSEEDGEVKFNWYVDGVEVHNAKTKPREEQDNSTYRVVSVLTVLHQDWLNGKEYKCKVSNKALPRPIEKTISKAKGQPREPQVYTLPPSRDELTKNQVSLTCLVKGFYPSDIAVEWESNGQPENNYKTTPPVLDSDGSFFLYSKLTVDKSRWQQGNVFSCSVMHEALHNHYTQESLSLSP chain 3: not shown
6 |  | 3.4 | 33 | IL6R-BP404/IL6R-L (antibody) chain 1: QVQLQESGPGLVKPSETLSLTCAVSGHSISHDHAWSWVRQPPGEGLEWIGFISYSGITNYNPSLQGRVTISRDNSKNTLYLQMNSLRAEDTAVYYCARSLARTTAMDYWGEGTLVTVSSASTKGPSVFPLAPSSKSTSGGTAALGCLVKDYFPEPVTVSWNSGALTSGVHTFPAVLQSSGLYSLSSVVTVPSSSLGTQTYICNVNHKPSNTKVDKKVEPKSCDKTHTCPPCPAPDYLGDDSVFLFPPKPKDTLMISRTPEVTCVVVDVSEEDGEVKFNWYVDGVEVHNAKTKPREEQDNSTYRVVSVLTVLHQDWLNGKEYKCKVSNKALPRPIEKTISKAKGQPREPQVYTLPPSRDELTKNQVSLTCLVKGFYPSDIAVEWESNGQPENNYKTTPPVLDSDGSFFLYSKLTVDKSRWQQGNVFSCSVMHEALHNHYTQESLSLSP chain 2: not shown
7 | 22 |  |  | IL6R-AP009/IL6R-BP259/IL6R-L (antibody) chain 1: QVQLQESGPGLVKPSETLSLTCAVSGHSISHDHAWSWVRQPPGEGLEWIGFISYSGITNYNPSLQGRVTISRDNSKNTLYLQMNSLRAEDTAVYYCARSLARTTAMDYWGEGTLVTVSSASTKGPSVFPLAPSSKSTSGGTAALGCLVKDYFPEPVTVSWNSGALTSGVHTFPAVLQSSGLYSLSSVVTVPSSSLGTQTYICNVNHKPSNTKVDKKVEPKSCDKTHTCPPCPAPDLLGDDSVFLFPPKPKDTLMISRTPEVTCVVVDVSDEDGEVKFNWYVDGVEVHNAKTKPREEQDNSTYRVVSVLTVLHQDWLNGKEYKCKVSNKALPRPIEKTISKAKGQPREPQVYTLPPSRKELTKNQVSLTCLVKGFYPSDIAVEWESNGQPENNYKTTPPVLDSDGSFFLYSKLTVDKSRWQQGNVFSCSVMHEALHNRYTQKSLSLSP chain 2: QVQLQESGPGLVKPSETLSLTCAVSGHSISHDHAWSWVRQPPGEGLEWIGFISYSGITNYNPSLQGRVTISRDNSKNTLYLQMNSLRAEDTAVYYCARSLARTTAMDYWGEGTLVTVSSASTKGPDVFPLAPSSKSTSGGTAALGCLVKDYFPEPVTVSWNSGALTSGVHTFPAVLQSSGLYSLSSVVTVPSSSLGTQTYICNVNHKPSNTKVDKKVEPKSCDKTHTCPPCPAPDLLGDDSVFLFPPKPKDTLMISRTPEVTCVVVDVSDEDGEVKFNWYVDGVEVHNAKTKPREEQDNSTYRVVSVLTVLHQDWLNGKEYKCKVSNKALPRPIEKTISKAKGQPREPQVYTLPPSRDELTKNQVSLTCLVKGFYPSDIAVEWESNGQPENNYKTTPPVLDSDGSFFLYSKLTVDKSRWQQGNVFSCSVMHEALHNHYTQESLSLSP chain 3: not shown
